{
  "source": "paper doi:10.1101/2020.01.12.903617",
  "about": "“The peptide sensor motif stabilizes the outward-facing conformation of TmrAB” (bioRxiv, 2020)",
  "binders": {"B1": {"name": "fluorescent transport substrate peptide RRY(C^Fluorescein)KSTEL (peptide)", "peptide": "RRYC(fluorescein)KSTEL", "notes": "fluorescein-labelled transport substrate peptide of TmrAB; also called fluorescently-labeled peptide substrate; peptide substrate; source: bought: Genscript"}},
  "key": {"TmrAB D117A^TmrB": {"molecular_target": "T1, TmrAB D117A^TmrB (Thermus thermophilus, UniProt Q72J05 1-600; Q72J04 1-578, D117A)", "T1 construct": "TmrA, Thermus thermophilus, the chain of TmrAB with the canonical Walker B motif; TmrB, Thermus thermophilus, the chain of TmrAB with the non-canonical Walker B motif", "T1 sequence 1": "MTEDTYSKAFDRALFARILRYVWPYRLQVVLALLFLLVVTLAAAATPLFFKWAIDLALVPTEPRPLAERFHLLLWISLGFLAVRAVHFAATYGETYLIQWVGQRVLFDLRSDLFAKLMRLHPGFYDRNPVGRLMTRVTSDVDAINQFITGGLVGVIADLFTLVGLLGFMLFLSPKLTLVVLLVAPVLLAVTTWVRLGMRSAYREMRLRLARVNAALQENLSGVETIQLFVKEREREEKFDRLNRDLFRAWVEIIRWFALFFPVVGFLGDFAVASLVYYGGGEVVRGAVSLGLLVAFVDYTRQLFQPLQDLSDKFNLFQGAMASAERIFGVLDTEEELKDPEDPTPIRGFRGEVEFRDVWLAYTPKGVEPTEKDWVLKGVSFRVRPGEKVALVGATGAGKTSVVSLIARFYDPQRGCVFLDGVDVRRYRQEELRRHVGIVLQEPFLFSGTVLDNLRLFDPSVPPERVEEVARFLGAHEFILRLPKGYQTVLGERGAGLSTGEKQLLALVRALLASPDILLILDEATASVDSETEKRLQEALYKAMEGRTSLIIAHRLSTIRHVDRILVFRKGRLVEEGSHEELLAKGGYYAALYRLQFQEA", "T1 sequence 2": "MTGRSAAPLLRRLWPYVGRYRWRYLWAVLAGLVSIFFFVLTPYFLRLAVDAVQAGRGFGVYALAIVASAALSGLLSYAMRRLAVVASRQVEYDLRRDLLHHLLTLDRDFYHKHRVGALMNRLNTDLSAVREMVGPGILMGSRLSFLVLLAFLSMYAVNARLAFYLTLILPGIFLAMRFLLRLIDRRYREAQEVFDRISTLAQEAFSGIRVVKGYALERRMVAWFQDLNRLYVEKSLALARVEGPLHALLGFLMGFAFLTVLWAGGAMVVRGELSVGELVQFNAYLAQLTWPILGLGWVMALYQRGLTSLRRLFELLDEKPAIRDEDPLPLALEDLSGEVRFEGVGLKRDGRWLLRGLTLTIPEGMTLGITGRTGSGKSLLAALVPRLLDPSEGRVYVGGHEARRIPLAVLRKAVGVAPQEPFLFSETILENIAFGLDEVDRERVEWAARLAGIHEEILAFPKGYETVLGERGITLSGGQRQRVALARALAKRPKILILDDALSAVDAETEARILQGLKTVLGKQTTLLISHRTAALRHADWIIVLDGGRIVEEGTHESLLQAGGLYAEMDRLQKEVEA", "assay": "fluorescence polarisation; 1.7 uM TmrAB with 50 nM RRY(C^Fluorescein)KSTEL in SEC buffer (20 mM HEPES, 150 mM NaCl, pH 7, 0.05% ß-DDM), 15 minutes on ice, in the absence or presence of 5 mM ATP and 10 mM MgCl2; read at 25°C (the results say 4°C); signal normalized to WT without ATP", "details": "both partners purified"}, "TmrAB R136A^TmrA": {"molecular_target": "T2, TmrAB R136A^TmrA (Thermus thermophilus, UniProt Q72J05 1-600; Q72J04 1-578, R136A)", "T2 construct": "TmrA, Thermus thermophilus, the chain of TmrAB with the canonical Walker B motif; TmrB, Thermus thermophilus, the chain of TmrAB with the non-canonical Walker B motif", "T2 sequence 1": "T1 sequence 1 with R136A", "T2 sequence 2": "T1 sequence 2 with A117D", "assay": "fluorescence polarisation; 1.7 uM TmrAB with 50 nM RRY(C^Fluorescein)KSTEL in SEC buffer (20 mM HEPES, 150 mM NaCl, pH 7, 0.05% ß-DDM), 15 minutes on ice, in the absence or presence of 5 mM ATP and 10 mM MgCl2; read at 25°C (the results say 4°C); signal normalized to WT without ATP", "details": "both partners purified"}},
  "note": "Where a chain is given by its changes, count along the chain named. No end group written: not given here. fluorescein = fluorescein label attached to the Cys side chain",
  "data": [
    {"binder": "B1", "values": [
      {"measurement": "binding result", "setting": "TmrAB D117A^TmrB", "value": "binds"},
      {"measurement": "binding result", "setting": "TmrAB R136A^TmrA", "value": "binds"}
    ]}
  ]
}
